The text below walks through data of publication PMC3576620, “Endocytosis of somatodendritic NCKX2 is regulated by Src family kinase-dependent tyrosine phosphorylation” (Frontiers in Cellular Neuroscience, 2013).

Positions count from the first letter of the chain named.

Test in all cases: co-IP; HEK293 cells co-transfected with HA-AP2M1 and myc-NCKX2-loop variants; lysate (50 mM Tris-Cl pH 7.4, 150 mM NaCl, 1 mM EDTA, 0.5% Triton X-100) incubated with anti-c-myc agarose overnight at 4°C; eluted with c-myc peptide; anti-HA blot, densitometry, n = 5
Conditions in all cases: partners not purified

Assay [1] has as its target T1, c-myc-tagged cytoplasmic loop of NCKX2, Y371A mutant (rat, UniProt O54701-1 288-478, Y371A).
T1 construct: K+-dependent Na+/Ca2+ exchanger 2 (NCKX2), rat (NM_031743.2; O54701), cytoplasmic loop region, amino acids 288-478, with Y371A; also called myc-NCKX2-loop Y371A; source: HEK293, transfected (calcium phosphate), in lysate; not shown: c-myc, N-terminal, kept
T1 sequence (looked up): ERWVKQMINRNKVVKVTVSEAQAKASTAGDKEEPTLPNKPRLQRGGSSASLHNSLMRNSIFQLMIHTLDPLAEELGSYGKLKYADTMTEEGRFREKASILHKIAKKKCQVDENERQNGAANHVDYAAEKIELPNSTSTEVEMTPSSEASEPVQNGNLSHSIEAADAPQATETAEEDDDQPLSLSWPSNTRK

Assay [2] concerns the target T2, c-myc-tagged cytoplasmic loop of NCKX2, phosphomimetic mutant Y365E (rat, UniProt O54701-1 288-478, Y365E).
T2 construct: K+-dependent Na+/Ca2+ exchanger 2 (NCKX2), rat (NM_031743.2; O54701), cytoplasmic loop region, amino acids 288-478, with Y365E; also called myc-NCKX2-loop Y365E; source: HEK293, transfected (calcium phosphate), in lysate; not shown: c-myc, N-terminal, kept
T2 sequence (looked up): T1 sequence (looked up) with Y78E, A84Y

For assay [3], the target named is T3, c-myc-tagged cytoplasmic loop of NCKX2 (myc-NCKX2-loop), wild type (rat, UniProt O54701-1 288-478).
T3 construct: K+-dependent Na+/Ca2+ exchanger 2 (NCKX2), rat (NM_031743.2; O54701), cytoplasmic loop region, amino acids 288-478, in pcDNA3.1(+); also called WT; source: HEK293, transfected (calcium phosphate), in lysate; not shown: c-myc, N-terminal, kept
T3 sequence (looked up): T1 sequence (looked up) with A84Y

B1: HA-tagged AP2M1 (μ subunit of adaptor protein complex 2) (natural protein, UniProt P84092 1-435, looked up)
chain: MIGGLFIYNHKGEVLISRVYRDDIGRNAVDAFRVNVIHARQQVRSPVTNIARTSFFHVKRSNIWLAAVTKQNVNAAMVFEFLYKMCDVMAAYFGKISEENIKNNFVLIYELLDEILDFGYPQNSETGALKTFITQQGIKSQHQTKEEQSQITSQVTGQIGWRREGIKYRRNELFLDVLESVNLLMSPQGQVLSAHVSGRVVMKSYLSGMPECKFGMNDKIVIEKQGKGTADETSKSGKQSIAIDDCTFHQCVRLSKFDSERSISFIPPDGEFELMRYRTTKDIILPFRVIPLVREVGRTKLEVKVVIKSNFKPSLLAQKIEVRIPTPLNTSGVQVICMKGKAKYKASENAIVWKIKRMAGMKESQISAEIELLPTNDKKKWARPPISMNFEVPFAPSGLKVRYLKVFEPKLNYSDHDVIKWVRYIGRSGIYETRC
notes: AP2M1, μ subunit of adaptor protein complex 2 (NM_053837.1; P84092), cloned into pcDNA3; gift from Dr. Ryan (Kim and Ryan, 2009); also called HA-AP2M1; μ subunit of AP-2; source: HEK293, transfected (calcium phosphate), in lysate
Take B1: the entries for the “amount of coimmunoprecipitated HA-AP2M1” value in assay [1], in assay [2] and in assay [3] were 41.6, 7.83 and 36.9, respectively.
